Reference: patent US20250382388A1 (ARGENX, published 2025)

B1: TA-Fc-ABDEG-2H11 (2H11 parental fused at the C-terminus of Fc-ABDEG) (Fc fusion)
chain: DKTHTCPPCPAPELLGGPSVFLFPPKPKDTLYITREPEVTCVVVDVSHEDPEVKFNWYVDGVEVHNAKTKPREEQYNSTYRVVSVLTVLHQDWLNGKEYKCKVSNKALPAPIEKTISKAKGQPREPQVYTLPPSRDELTKNQVSLTCLVKGFYPSDIAVEWESNGQPENNYKTTPPVLDSDGSFFLYSKLTVDKSRWQQGNVFSCSVMHEALKFHYTQKSLSLSPGGGGGSGGGGSGGGGSGGGGSELQVVESGGGLVQAGGSLRLSCAASGRTFRSNTMGWFRQAPGKEREFVAAITWSGGTTYYADSVKGRFAISGDNAKNTVYLQMNSLKPEDTAVYYCAAEGPKWEPWNGIYHPADFGSWGQGTQVTVSS
B2: TA-Fc-ABDEG-2H11-v3 (Fc fusion)
chain: DKTHTCPPCPAPELLGGPSVFLFPPKPKDTLYITREPEVTCVVVDVSHEDPEVKFNWYVDGVEVHNAKTKPREEQYNSTYRVVSVLTVLHQDWLNGKEYKCKVSNKALPAPIEKTISKAKGQPREPQVYTLPPSRDELTKNQVSLTCLVKGFYPSDIAVEWESNGQPENNYKTTPPVLDSDGSFFLYSKLTVDKSRWQQGNVFSCSVMHEALKFHYTQKSLSLSPGGGGGSGGGGSGGGGSGGGGSELQVVESGGGLVQAGGSLRLSCAASGRTFRSNTMGWFRQAPGKEREFVAAITWSGGTTYYADSVKGRFAISGDNAKNTVYLQMNSLKPEDTAVYYCAAEGAKWEPWNGIYHPADFGSWGQGTQVTVSS
B3: TA-Fc-ABDEG-2H11-v12 (Fc fusion)
chain: DKTHTCPPCPAPELLGGPSVFLFPPKPKDTLYITREPEVTCVVVDVSHEDPEVKFNWYVDGVEVHNAKTKPREEQYNSTYRVVSVLTVLHQDWLNGKEYKCKVSNKALPAPIEKTISKAKGQPREPQVYTLPPSRDELTKNQVSLTCLVKGFYPSDIAVEWESNGQPENNYKTTPPVLDSDGSFFLYSKLTVDKSRWQQGNVFSCSVMHEALKFHYTQKSLSLSPGGGGGSGGGGSGGGGSGGGGSELQVVESGGGLVQAGGSLRLSCAASGRTFRSNTMGWFRQAPGKEREFVAAITWSGGTTYYADSVKGRFAISGDNAKNTVYLQMNSLKPEDTAVYYCAAEGPKWEPWNGIAHPADFGSWGQGTQVTVSS
notes: Scaffold as for m24
B4: TA-Fc-ABDEG-2H11-v15 (Fc fusion)
chain: DKTHTCPPCPAPELLGGPSVFLFPPKPKDTLYITREPEVTCVVVDVSHEDPEVKFNWYVDGVEVHNAKTKPREEQYNSTYRVVSVLTVLHQDWLNGKEYKCKVSNKALPAPIEKTISKAKGQPREPQVYTLPPSRDELTKNQVSLTCLVKGFYPSDIAVEWESNGQPENNYKTTPPVLDSDGSFFLYSKLTVDKSRWQQGNVFSCSVMHEALKFHYTQKSLSLSPGGGGGSGGGGSGGGGSGGGGSELQVVESGGGLVQAGGSLRLSCAASGRTFRSNTMGWFRQAPGKEREFVAAITWSGGTTYYADSVKGRFAISGDNAKNTVYLQMNSLKPEDTAVYYCAAEGPKWEPWNGIYHPAAFGSWGQGTQVTVSS
B5: TA-Fc-ABDEG-2H11-v16 (Fc fusion)
chain: DKTHTCPPCPAPELLGGPSVFLFPPKPKDTLYITREPEVTCVVVDVSHEDPEVKFNWYVDGVEVHNAKTKPREEQYNSTYRVVSVLTVLHQDWLNGKEYKCKVSNKALPAPIEKTISKAKGQPREPQVYTLPPSRDELTKNQVSLTCLVKGFYPSDIAVEWESNGQPENNYKTTPPVLDSDGSFFLYSKLTVDKSRWQQGNVFSCSVMHEALKFHYTQKSLSLSPGGGGGSGGGGSGGGGSGGGGSELQVVESGGGLVQAGGSLRLSCAASGRTFRSNTMGWFRQAPGKEREFVAAITWSGGTTYYADSVKGRFAISGDNAKNTVYLQMNSLKPEDTAVYYCAAEGPKWEPWNGIYHPADAGSWGQGTQVTVSS
notes: Scaffold as for m24
B6: OA-Fc-ABDEG-Alb23 (Fc fusion)
chain 1: DKTHTCPPCPAPELLGGPSVFLFPPKPKDTLYITREPEVTCVVVDVSHEDPEVKFNWYVDGVEVHNAKTKPREEQYNSTYRVVSVLTVLHQDWLNGKEYKCKVSNKALPAPIEKTISKAKGQPREPQVYTLPPSRDELTKNQVSLWCLVKGFYPSDIAVEWESNGQPENNYKTTPPVLDSDGSFFLYSKLTVDKSRWQQGNVFSCSVMHEALKFHYTQKSLSLSPGGGGGSGGGGSGGGGSGGGGSEVQLLESGGGLVQPGGSLRLSCAASGFTFRSFGMSWVRQAPGKGPEWVSSISGSGSDTLYADSVKGRFTISRDNSKNTLYLQMNSLRPEDTAVYYCTIGGSLSRSSQGTLVTVSS
chain 2: DKTHTCPPCPAPELLGGPSVFLFPPKPKDTLYITREPEVTCVVVDVSHEDPEVKFNWYVDGVEVHNAKTKPREEQYNSTYRVVSVLTVLHQDWLNGKEYKCKVSNKALPAPIEKTISKAKGQPREPQVYTLPPSRDELTKNQVSLSCAVKGFYPSDIAVEWESNGQPENNYKTTPPVLDSDGSFFLVSKLTVDKSRWQQGNVFSCSVMHEALKFHYTQKSLSLSPG
notes: also called OA-Fc-ABDEG-20GS-Alb23; ABDEG-20GS-Alb23
B7: Alb23 F32A VHH fragment (VHH)
VHH: EVQLLESGGGLVQPGGSLRLSCAASGFTFRSAGMSWVRQAPGKGPEWVSSISGSGSDTLYADSVKGRFTISRDNSKNTLYLQMNSLRPEDTAVYYCTIGGSLSRSSQGTLVTVSS
notes: also called Alb23-SM
B8: efgartigimod (human IgG1 Fc fragment with ABDEG mutations) (other)
chain: DKTHTCPPCPAPELLGGPSVFLFPPKPKDTLYITREPEVTCVVVDVSHEDPEVKFNWYVDGVEVHNAKTKPREEQYNSTYRVVSVLTVLHQDWLNGKEYKCKVSNKALPAPIEKTISKAKGQPREPQVYTLPPSRDELTKNQVSLTCLVKGFYPSDIAVEWESNGQPENNYKTTPPVLDSDGSFFLYSKLTVDKSRWQQGNVFSCSVMHEALKFHYTQKSLSLSPG
notes: residues 1-226 (my count) are the Fc part; also called ARGX-113; efgartigimod alfa
B9: TA-Alb23-Fc-ABDEG (Fc fusion)
chain: EVQLLESGGGLVQPGGSLRLSCAASGFTFRSFGMSWVRQAPGKGPEWVSSISGSGSDTLYADSVKGRFTISRDNSKNTLYLQMNSLRPEDTAVYYCTIGGSLSRSSQGTLVTVSSDKTHTCPPCPAPELLGGPSVFLFPPKPKDTLYITREPEVTCVVVDVSHEDPEVKFNWYVDGVEVHNAKTKPREEQYNSTYRVVSVLTVLHQDWLNGKEYKCKVSNKALPAPIEKTISKAKGQPREPQVYTLPPSRDELTKNQVSLTCLVKGFYPSDIAVEWESNGQPENNYKTTPPVLDSDGSFFLYSKLTVDKSRWQQGNVFSCSVMHEALKFHYTQKSLSLSPG
notes: Alb23 VHH on the N-terminus of both Fc domains; also called two-armed N-terminal anti-HSA-Fc-ABDEG
B10: TA-Fc-ABDEG-Alb23 (Fc fusion)
chain: DKTHTCPPCPAPELLGGPSVFLFPPKPKDTLYITREPEVTCVVVDVSHEDPEVKFNWYVDGVEVHNAKTKPREEQYNSTYRVVSVLTVLHQDWLNGKEYKCKVSNKALPAPIEKTISKAKGQPREPQVYTLPPSRDELTKNQVSLTCLVKGFYPSDIAVEWESNGQPENNYKTTPPVLDSDGSFFLYSKLTVDKSRWQQGNVFSCSVMHEALKFHYTQKSLSLSPGGGGGSGGGGSGGGGSGGGGSEVQLLESGGGLVQPGGSLRLSCAASGFTFRSFGMSWVRQAPGKGPEWVSSISGSGSDTLYADSVKGRFTISRDNSKNTLYLQMNSLRPEDTAVYYCTIGGSLSRSSQGTLVTVSS
notes: also called TA-ABDEG-Alb23

How the values were obtained:
human serum albumin [1] = molecular target: T1, human serum albumin (human, UniProt P02768 25-609); assay: SPR Biacore 3000, HSA on chip, pH 5.5
T1 construct: Immobilised on SPR chips; also added in solution to the cell assays; also called HSA; humanSA

human serum albumin [2] = molecular target: T1, human serum albumin; assay: SPR Biacore 3000, HSA on chip, ratio of R0 at pH 5.5 to pH 7.4
human serum albumin [3] = molecular target: T1, human serum albumin; assay: SPR Biacore 3000, HSA on chip, pH 7.4
human serum albumin [4] = molecular target: T1, human serum albumin; assay: SPR, Langmuir 1:1 or steady state model, pH 5.5
human serum albumin [5] = molecular target: T1, human serum albumin; assay: SPR, pH 7.4
[6] = molecular target: T2, FcRn-L322A/L323A expressed in HEK293 cells (UniProt P55899 24-365); assay: cell FcRn occupancy, flow cytometry, free FcRn stained with anti-FcRn-Fab AF647, HEK293-FcRn-L322A/L323A cells, with HSA
T2 sequence (P55899 24-365 L343A/L344A, chain 1 of 2): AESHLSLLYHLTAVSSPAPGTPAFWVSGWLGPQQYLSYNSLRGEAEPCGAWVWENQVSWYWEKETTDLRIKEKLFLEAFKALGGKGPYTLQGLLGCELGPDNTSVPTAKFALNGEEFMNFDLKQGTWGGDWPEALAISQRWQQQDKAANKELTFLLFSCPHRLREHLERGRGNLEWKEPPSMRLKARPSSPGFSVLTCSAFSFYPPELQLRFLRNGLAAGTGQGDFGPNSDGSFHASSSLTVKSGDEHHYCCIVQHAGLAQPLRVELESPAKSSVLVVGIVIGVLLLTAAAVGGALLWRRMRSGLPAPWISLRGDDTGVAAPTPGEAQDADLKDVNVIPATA
T2 sequence (chain, as listed by the source L322A L323A, chain 2 of 2): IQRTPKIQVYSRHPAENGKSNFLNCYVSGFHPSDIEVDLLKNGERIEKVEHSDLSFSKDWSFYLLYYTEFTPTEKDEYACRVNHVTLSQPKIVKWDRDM

human serum albumin [7] = molecular target: T1, human serum albumin; assay: SPR, pH 5.5; pH 5.5
[8] = molecular target: T2, FcRn-L322A/L323A expressed in HEK293 …; assay: cell FcRn occupancy, flow cytometry, free FcRn stained with anti-FcRn-Fab AF647, HEK293-FcRn-L322A/L323A cells, without HSA
human serum albumin [9] = molecular target: T1, human serum albumin; assay: SPR, pH 5.5
human serum albumin [10] = molecular target: T1, human serum albumin; assay: SPR, Langmuir 1:1 or steady state model, pH 7.4
human serum albumin [11] = molecular target: T1, human serum albumin; assay: not stated there (refers to the earlier SPR)
[12] = molecular target: T3, neonatal Fc receptor (FcRn), endogenous in U937 cells (UniProt P55899 24-365; P61769 21-119); assay: cell FcRn occupancy, flow cytometry, free FcRn stained with labelled anti-FcRn Fab, U937 cells, 2,500 nM HSA (SD 1.4)
T3 construct: whole, on cells; Free FcRn was stained inside fixed and permeabilised cells
T3 sequence (P55899 24-365 limits assumed, chain 1 of 2): as the sequence (P55899 24-365 L343A/L344A, chain 1 of 2) above, with A320L, A321L counted along it
T3 sequence (P61769 21-119 limits assumed, chain 2 of 2): as the sequence (chain, as listed by the source L322A L323A, chain 2 of 2) above
Protocol: (§1) Next, FcRn occupancy was tested using a cell-based FcRn occupancy assay in the presence or absence of albumin. Briefly, test articles (Fc-ABDEG-VHH molecules) were pre-incubated with HSA for 30 minutes at 37° C., pH 7.4 in FACS buffer. Cells (HEK FcRn mut or U937) were plated in a 96-well microplate. Cells were incubated with test article for two hours, shaking at 37° C., pH 7.4 in FACS buffer. Plates were then transferred immediately on ice and cells were collected by centrifugation at 4° C. Cells stained for viability in FACS buffer at pH 6 and then fixed/permeabilized in permeabilization buffer at pH 6. […] Cells were analyzed by FACS, ensuring that they are kept on ice until immediately prior to analysis.

[13] = molecular target: T3, neonatal Fc receptor (FcRn), endogenous …; assay: cell FcRn occupancy, flow cytometry, free FcRn stained with anti-FcRn-Fab AF647, U937 cells, with HSA
Protocol: as §1

Binder	R0 pH5.5 (human serum albumin [1])	koff (human serum albumin [1])	R0 5.5/7.4 (human serum albumin [2])	R0 pH7.4 (human serum albumin [3])	koff (human serum albumin [3])	% max occupancy [6]	IC50 [6]	IC50 [8]	further results
B1	351 RU	0.00016 s⁻¹	3	115 RU	0.00072 s⁻¹	–	–	–	–
B2	164 RU	0.000135 s⁻¹	19.9	8.24 RU	0.0029 s⁻¹	–	–	–	–
B3	93.9 RU	9.72e-05 s⁻¹	14.9	6.32 RU	0.0012 s⁻¹	–	–	–	–
B4	235 RU	0.00174 s⁻¹	370	0.635 RU	0.0025 s⁻¹	–	–	–	–
B5	8.91 RU	0.00301 s⁻¹	16	0.571 RU	0.00193 s⁻¹	–	–	–	–
B6	–	–	–	–	–	67.9%	11.5 nM	6.4 nM	Kd (human serum albumin [4]): 66.5 nM; koff (human serum albumin [4]): 0.00186 s⁻¹; kon (human serum albumin [4]): 27900 M⁻¹ s⁻¹; Kd (human serum albumin [5]): 147 nM; koff (human serum albumin [5]): 0.00336 s⁻¹; kon (human serum albumin [5]): 22900 M⁻¹ s⁻¹; kon (human serum albumin [7]): 27900 M⁻¹ s⁻¹; Kd (human serum albumin [9]): 66.5 nM; koff (human serum albumin [9]): 0.00186 s⁻¹; Kd (human serum albumin [10]): 147 nM; koff (human serum albumin [10]): 0.00336 s⁻¹; kon (human serum albumin [10]): 22900 M⁻¹ s⁻¹
B7	–	–	–	–	–	–	–	–	fold lower affinity against parental Alb23 VHH (human serum albumin [11]): ~300 fold
B8	–	–	–	–	–	57.7%	16.1 nM	6.8 nM	IC50 [12]: 2.9 nM; % max occupancy [13]: 56.8%; IC50 [13]: 4.8 nM
B9	–	–	–	–	–	43.4%	78.3 nM	19.9 nM	–
B10	–	–	–	–	–	63.8%	33 nM	20.2 nM	–
